Measured values from paper doi:10.1101/2020.10.29.360743.

Molecular target: AcoD, ATP-dependent DMSP lyase of Psychrobacter sp. D2 (Psychrobacter sp. D2)
Experiment: SEC

stoichiometry N: 2
Substance: AcoD, ATP-dependent DMSP lyase of Psychrobacter sp. D2 (enzyme)
